The data set is described as follows: label from the status in PepcDB records.
“SRSRPAGPALLLLLLFLGAAESVRRAQPPRRYTPDWPSLDSRPLPAWFDEAKFGVFIHWGVFSVPAWGSEWFWWHWQGEGRPQYQRFMRDNYPPGFSYADFGPQFTARFFHPEEWADLFQAAGAKYVVLTTKHHEGFTNWPSPVSWNWNSKDVGPHRDLVGELGTALRKRNIRYGLYHSLLEWFHPLYLLDKKNGFKTQHFVSAKTMPELYDLVNSYKPDLIWSDGEWECPDTYWNSTNFLSWLYNDSPVKDEVVVNDRWGQNCSCHHGGYYNCEDKFKPQSLPDHKWEMCTSIDKFSWGYRRDMALSDVTEESEIISELVQTVSLGGNYLLNIGPTKDGLIVPIFQERLLAVGKWLSINGEAIYASKPWRVQWEKNTTSVWYTSKGSAVYAIFLHWPENGVLNLESPITTSTTKITMLGIQGDLKWSTDPDKGLFISLPQLPPSAVPAEFAWTIKLTGVK”: the protein production result is listed as “failed”. Take “SSGGKSAQGPEEGGVCITEALITKRNLTFPEDGELSEKMFHTLDELQTVRLDREGITTIRNLEGLQNLHSLYLQGNKIQQIENLACIPSLRFLSLAGNQIRQVENLLDLPCLQFLDLSENLIETLKLDEFPQSLLILNLSGNSCTNQDGYRELVTEALPLLLDLDGQPVVERWISDEEDEASSDEEFPELSGPFCSERGFLKELEQELSRHREHRQQTALTEHLLRMEMQPTLTDLPLLPGVPMAGDSSPSATPAQGEETVPEAVSSPQASSPTKKPCSLIPRGHQSSFWGRKGARAATAPKASVAEAPSTTKTTAKRSKK”: the protein production result was “not failed”. The entry for “SSNQTPYIGSKISLISKLDIRYEGILYTVDTNDSTIALAKVRSFGTEKRPTANPVAARDDVYEYIIFKASDIKDLIVCDTPKMANIGGGLPYDPAIISVSSRSAPASDGAPAASAGSSRAGTPSRNSPLGQIIQNQRPGRGGYQQNFQANRGYNNYRGGFAGGYNNQRGHNNYGVPRVNHREKLKFESDFDFEKANEKFQEVLVDNLEKLNIEDKAEPEVEEKKDAAFYDKKTSFFDNISCESLEKAEGKTGRPDWKKERETNQETFGHNAVRSLNYRRGFGGRGRGGNRGYGGYNNGYQHQHQHRGGYNGGYRQNNGGYRRGGYAPRDNQGNTAAAAEQ” is “failed”; for “SSQQRPARKLPSLLLDPTEETVRRRCRDPINVEGLLPSKIRINLEDNVQYVSMRKALKVKRPRFDVSLVYLTRKFMDLVRSAPGGILDLNKVATKLGVRKRRVYDITNVLDGIDLVEKKSKNHIRWIGSDLSNFGAVPQQKKLQEELSDLSAMEDALDELIKDCAQQLFELTDDKENERLAYVTYQDIHSIQAFHEQIVIAVKAPAETRLDVPAPREDSITVHIRSTNGPIDVYLCEVEQGQTSNKRSEGVGTSSSESTHPEGPEEEENPQQSEELLEVSN” it is “failed”; for “SSTFSASDFNSERYSSSRPSYPSDFYKMIDEYHDGERKLLVDVGCGPGTATLQMAQELKPFEQIIGSDLSATMIKTAEVIKEGSPDTYKNVSFKISSSDDFKFLGADSVDKQKIDMITAVECAHWFDFEKFQRSAYANLRKDGTIAIWGYADPIFPDYPEFDDLMIEVPYGKQGLGPYWEQPGRSRLRNMLKDSHLDPELFHDIQVSYFCAEDVRDKVKLHQHTKKPLLIRKQVTLVEFADYVRTWSAYHQWKQDPKNKDKEDVADWFIKESLRRRPELSTNTKIEVVWNTFYKLGKRV” it is “not failed”. The entry for “STALIQLYSLCEHAFHRHLGSGSDSRQTIERYSSPKVRRLLQTLRCFKPEEVHTQADGLRRMRHQVDQADFNRLSHTLESKCRMVDQMDQPPTETRALVATLEQILHTTEDRQTNRSAARVTPTPTPAHAKPKPSSGANTAQPRTRRRVY” is “failed”; for “STPSSKAINEVSTEDSNVTVTAVVLTSGRRSIQYNGEQHVIREGELADETGKISYTAWDGFSGDLQPGQTVQLGNAGVREWDGQPELNLGDSTDP” it is “failed”; for “STQTDKALYNRLVPLVNGVREFSEIQLSRLKKLGIHKTDPSTLTEEEVRKFARLNIDPATITWQ” it is “not failed”. With “SVMCAAIAAGAFAQGQGQGLAGINEATSLMTSYFDPATKLCYAIGAVLGLVGGIKTYGKFSSGDPDTSKTAASWFFACIFLIVAATILRSFF”, the protein production result is on record as “failed”. The entry for “SWKQAVRPCLRLPNFRFDWTSFNVLSAQKRWVKSFSTAVSIKEDPFWSAPLKKVLENHPETQYAYPDSTTVLECARGLVRDDLSSVLVFENVQDKLRWIGIFSERDIVRKVASQGLPLEKTQLKKAYTTRDRVETITVDKTVQDVVDILVSKDVQNIAVLYQKKHGDAFREDCYGVLTSRDLSTFFLSIPENDRSFFEQQTVKDVLESKGLDRSGDNTVYQIHQSVSVDEAIQKMDDHKVGTLLVTQSGK” is “failed”. The same measure for “SWNKKNEEKEDFGIIVILWKQVTVKEDGKVPLEPFLTAAKEVLRVVDAFGSGFRIVKNDIAGNIKKLYRANQTVHAETLQELIIAENSPDGLATVALLWLKRAFQFIASFLRRLVVTDKSLEQCVTEAYNCTLRPCHSAVIQKVFWGGVKLAPSRERFYRKLHPDLNIAKAKIEEFLIELHDPLCCIVQFFFQRELEDQCWGDEVYQRKDSSEWLKVSCEQDSV”: “not failed”. The same measure for “SYRSTQQITDFTKEILVNGEAVTAFDRQGDLPNVVVTPNFEAGVDQVVDQLAMNDSERDTTAIIGKSLAECEALTKALKARGEQVTLIQTENQRLAPGVIVVPSFLAKGLEFDAVIVWNANQENYQREDERQLLYTICSRAMHELTLVAVGSLSPLLARVNHALYTLNEAK”: “not failed”; for “TAPTLAEEVKQQSDGSVIIEGSANLRDLNKLFNWHLPINEVRTFNGLILEHLEKIPIEGTQFRLNQLNITVLEVADNMVKKVKVELIE”: “not failed”.

For the sequence “TCIYKLADTVSDEYSLQKIIDFLSSTPQGKQAFQKRPQLGVVDLPKLHQLPTDTLGYVYADQMLQNNLQPLQSHEIDNDYQFFKTHITETHDLWHIVTGADTSILGEIQLEAFYVSQLYASRFWLALLAKNLLKAVIYDIELSTPYMDAISTGWVMAKQAKPLFGLEWNLLWEKPLADVRTSLNIILP”, the protein production entry was “failed”.

Take “TDRARRVIVLAQEEARGLNHNYIGTEHILLGLIHEGEGVAAKALESMGISLEAVRQEVEEIIGHGSEPPAGHIPFTPRAKKVLELSLREGLQMGHKYIGTEFLLLGLIREGDGVAAQVLVKLGADLPRVRQQVIQLLSGYEGGESPENNNEGEAVGAG”: the protein production entry is on record as “failed”. “TEDNIVELDGREWIMTRRQKTRVATNIILLDIPKRIIEKYAPVRKNGHLLPILSNQKMNAYLKEIADLCNIRKPLSFHMARYREFYKHQIINRLYCMSIKGGNEKETSELLYSTLFCHFKEPLFVDCKDSDFFNNMIAIEEL”: the protein production result is given as “failed”.

Consider “TEKTKAVETTDVALAIDTLVQNGLKALDEMRQLNQEQVDYIVAKASVAALDAHGELALHAVEETGRGVFEDKATKNLFACEHVVNNMRHTKTVGVIEEDDVTGLTLIAEPVGVVCGITPTTNPTSTAIFKSLISLKTRNPIIFAFHPSAQESSAHAARIVRDAAIAAGAPENCVQWIEQPSIDATNALMNHDGIATILATGGNAMVKAAYSCGKPALGVGAGNVPAYVEKSANIRQAAHDIVMSKSFDNGMVCASE”, for which the protein production result is on record as “not failed”. Regarding “TERMDKVGDALEEVLSKALSQRTITVGVYEAAKLLNVDPDNVVLCLLAADEDDDRDVALQIHFTLIQAFCCENDINILRVSNPGRLAELLLLETDAGPAASEGAEQPPDLHCVLVTNPHSSQWKDPALSQLICFCRESRYMDQWVPVINLPER”, the protein production entry is reported as “failed”. As to “TERVNLWMHDHGVRRPFRPVVADGYKKTINKNHSVNGSAPNFVHACDAAHLLRTVNAARAEGITQFALVHDSFGSLPSHAARFRQIIREEFVRMYEEHDVLTEVLEQAKCDLDEHNDKLSALVDMRADLTGKLNIKEVLNAEYAFAYP”, the protein production result is on record as “failed”.

For the sequence “TFVCASAGNHAQGFAFVCRHFGVPGVVFMPVTTPQQKIDKTRMFGAEFITIRLVGDIFDQCYKAAREHVEAIGGVMVPPFDHDDIIEGQATVAAEIAEQLPAGPVADLVVLPVGGGGLAAGVTGYLGDSLSADRFLFCEPEGAPSFRRSLELGGVVTLDQVDNFVDGAAVARIGDLNFAALRRFSPEQVMLLPENAICLTITEMLNVEGVVLEPAGALAITALEALGRDSLEGKIVVAVVSGGNF”, the protein production result was “failed”.

“TGDASKCLATGPGIASTVKTGEEVGFVVDAKTAGKGKVTCTVLTPDGTEAEADVIENEDGTYDIFYTAAKPGTYVIYVRFGGVDIPNSPFTVMATDGEVTAVEEAPVNACP”: the protein production entry is “not failed”. On to “TGFVGEMYGTGDILRSVSIPSETDKPIIVELAVAAMEELVRMAQTGDPLWLSTDNSVEILNEEEYFRTFPRGIGPKPLGLRSEASRQSAVVIMNHINLVEILMDVNQWSCVFSGIVSRALTLEVLSTGVAGNYNGALQVMTAEFQVPSPLVPTRENYFVRYCKQHSDGSWAVVDVSLDSLRPSTPILRTRRRPSGCLIQELPNGYSKVTWIEHMEVDDRSVHNMYKPLVQSGLAFGAKRWVATLERQCERLASSMASNIPGDLSVITSPEGRKSMLKLAERMVMSFCSGVGASTAHAWTTMSTTGSDDVRVMTRKSMV”, for which the protein production result is reported as “failed”. Consider “TGPQGPPGPAGPKGAKGETGPQGPPGPAGPKGAKGDSGVPLSYEFTQKVESSNGTAVFGLLSNGFVEVRITGSYSSDVFNIPYNYRPLKAGTQMALFSTSGVGVAKVGEDKITIQGYSRNAQCSGTVLYPHREF”, for which the protein production entry is on record as “failed”. With “THANIQGLVKHVDYMAFSDQDTFLSVSNYAFDAFTFDFYASMLNAARLIIADEHTLLDTERLTDLILQENVNVMFATTALFNLLTDAGEDWMKGLRCILFGGERASVPHVRKALRIMGPGKLINCYGPTEGTVFATAHVVHDLPDSISSLPIGKPISN”, the protein production result was “failed”. The same measure for “TPHLVNLNEDPLMSECLLYYIKDGITRVGQADAERRQDIVLSGAHIKEEHCIFRSERSNSGEVIVTLEPCERSETYVNGKRVSQPVQLRSGNRIIMGKNHVFRFNHPEQARAEREKT”: “not failed”; for “TPLAEGAKAIETLCKLIKKGHIVAVKGIGGFHLVCDATKNRVVMELRERKKRPTKPFAVMFRSVFEIGKCTELSPIEEATILSPERPIVLISKRRPHRLEKFLISCDGVAPRVGTMGVFLPYSPLHSLLMEQAKIPLVFTSANLSGEPLIRDFKELCEKLSGVFDYYLDHDREILNPCDDSVVTIQNNKFQV”: “failed”; for “TPLPHQLEVAQKVVEKMNGKAILADEVGLGKTVEAGLILKEYMIRGLAKKILILVPASLVSQWVKELQEKFLIPAVEQKKSYVWEQCDIVVSSIDTAKRSPHREIVLSIPYDLVIIDEAHKLKNSKTKNYEFVRNLVKKYCLLLTATPIQNRIEEIFNLVSLLKPGHL”: “failed”. The entry for “TPLSLTLDHWSEIRSRAHNLSVEIKKGPWRTFCASEWPTFDVGWPPEGTFDLTVIFEVKAIVFQDGPGSHPDQQPYITVWQDLVQNSPPWIK” is “not failed”; for “TQEYLAPKTTVRVGLVQWQMRSYKTLDDLFEQVEFFVDAVSDYKSDFVLFPEYFNAPLMSKYNDKGESQAIRGLAQYTEEIRDRFINLAISYNINIITGSMPLIKEDGLLYNAGFLCRRDGTYEMYEKLHVTPDEIKSWGLSGGKQLKTFDTDCAKIGILICYDVEFPELSRLMADQGMQILFVPFLTDTQNAYSRVRVCAQARAIENECFVVIAGSVGNLPRVHNMDIQYAQSGVFTPCDFAFPTDGKRAEATPNTEMILVSDVDLDLLNELHTYGSVRNLKDRRNDVYEVRFKKP” it is “failed”.
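Further: failed if final PepcDB status was selected cloned or expressed and not failed if soluble or beyond.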
